Data on one molecule can be found in article PMC3718800, “Structural and Functional Perturbation of Giardia lamblia Triosephosphate Isomerase by Modification of a Non-Catalytic, Non-Conserved Region” (PLoS ONE, 2013).

This data set can be described thus: TIM activity coupled assay, kinetic constants of WT GlTIM and C222 mutants with GAP. The class given is biochemical, Giardia lamblia. As to the method:
Glyceraldehyde 3-phosphate (GAP), buffers, salts and all the other analytical grade reagents were acquired from Sigma–Aldrich; α-glycerol-3-phosphate dehydrogenase (α-GDH) was from Roche, crystallization screen kits were obtained from Hampton Research. Restriction enzymes, DNA polymerase and T4 DNA ligase were purchased from New England BioLabs and Invitrogene. Oligonucleotide synthesis and DNA sequencing was performed at the Unidad de Biología Molecular, Instituto de Fisiología Celular, UNAM. Protein concentration was determined by the bicinchoninic acid method or by absorbance at 280 nm for pure GlTIM (ε280 = 26600 M^-1cm^-1). The TIM activity was determined at 25°C by a coupled assay, following the decrease in absorbance at 340 nm. The standard reaction mixture contained 100 mM triethanolamine/10 mM EDTA, pH 7.4 (TE buffer), 1 mM GAP, 0.2 mM NADH, and 0.9 units of α-GDH (20 μg/mL); the reaction was initiated by addition of 5 ng/mL of WT, C222V or C222M GlTIM, 10 ng/mL of C222N, 20 ng/mL of C222D or C222F, and 200 ng/mL of C222K. Kinetic, binding and stability data were analyzed by non-linear regression calculations with Origin software.
Determination of Km and Vmax was performed by fitting initial velocity data at GAP concentrations ranging from 0.3 to 3 mM to the Michaelis-Menten equation (v = Vmax•S/Km+S) by non-linear regression calculations. […]

B1: GlTIM: recombinant wild type triosephosphate isomerase of Giardia lamblia (protein, UniProt P36186 1-257, looked up)
Triosephosphate isomerase: MPARRPFIGGNFKCNGSLDFIKSHVAAIAAHKIPDSVDVVIAPSAVHLSTAIAANTSKQLRIAAQNVYLEGNGAWTGETSVEMLQDMGLKHVIVGHSERRRIMGETDEQSAKKAKRALEKGMTVIFCVGETLDERKANRTMEVNIAQLEALGKELGESKMLWKEVVIAYEPVWSIGTGVVATPEQAEEVHVGLRKWFAEKVCAEGAQHIRIIYGGSANGSNCEKLGQCPNIDGFLVGGASLKPEFMTMIDILTKTRT
Take B1: for the setting “GAP 0.3 to 3 mM, 25°C, pH 7.4”, the Vmax came out at 8050 ± 444 µmol/min/mg. In addition, the “kcat x 10^5” value (calculated from Vmax, molecular mass 27.7 kDa) is given as 4.4 x 10^5 min^-1.
